Test results: patent publication US12668821B2, “Enzymatic production of glucaric acid from glucuronic acid” (THE GOVERNING COUNCIL OF THE UNIVERSITY OF TORONTO, priority 2019, dated 2026)

What was measured:
[1] = Activity screening of GOOX variants and glucose oxidase on MeGlcA; type: biochemical; conditions: for nmol oxidized MeGlcA Mean: enzyme 16 nM, 37° C., 1 mM MeGlcA (FIG. 11 legend; b102 says 10 mM), 100 mM Tris pH 8.0 (GOOX variants) or 50 mM sodium acetate pH 5.0 (GO)
Description: (§1) FIG. 11: Activity screening of GOOX variants and glucose oxidase (GO) on GlcA and MeGlcA substrates. The enzymes (16 nM) were assayed at 37° C. with 10 mM GlcA and 1 mM MeGlcA in 100 mM Tris buffer pH 8.0 (for GOOX variants) or 50 mM sodium acetate pH 5.0 (for GO). The dotted line indicates the activity of GOOX-VN for MeGlcA for ease of comparison. “CtCBM22A-wtGOOX” and “CtCBM22A-Y300A” represent fusion proteins where the C terminus of the xylan-binding protein CtCBM22A (described in Vuong and Master, 2014) is fused to the N terminus GOOX.
(§2) The specific activity of GOOX-Y300A (16 nM) on MeGlcA and GlcA (1 mM) was measured in 50 mM Tris buffer pH 8.0 at 40° C. The amount of methyl glucaric acid was determined by measuring the release of H2O2 using a previously published colorimetric assay (Lin et al., 1991). The kinetics of GOOX-Y300A on these acidic sugars were measured at the same condition, but using up to 60 mM MeGlcA and GlcA and in 0.3 M Tris buffer pH 8.0.

[2] = Activity screening of GOOX variants and glucose oxidase on GlcA; type: biochemical; conditions: for nmol oxidized GlcA Mean: enzyme 16 nM, 37° C., 10 mM GlcA (FIG. 11 legend; b102 says 100 mM), 100 mM Tris pH 8.0 (GOOX variants) or 50 mM sodium acetate pH 5.0 (GO); for activity with GlcA as substrate (in words): screening, compared with wtGOOX
Description: as §1, §2

Molecule	nmol oxidized MeGlcA Mean [1] [nmol]	activity with MeGlcA as substrate (in words) ([1]; screening, compared with wtGOOX)	nmol oxidized GlcA Mean [2] [nmol]	activity with GlcA as substrate (in words) [2]
N388S: GOOX variant with N388S relative to SEQ ID NO: 1 (protein, listed as Sarocladium strictum, (1)..(206) FAD-binding domain; (207)..(474) substrate-binding domain) NSINACLAAADVEFHEEDSEGWEMDGTAFNLRVDYDPVAIAIPRSTEDIAAAVQCGLDAGVQISAKGGGHSYGSYGFGGEDGHLMLELDRMYRVSVDDDNVATIQGGARLGYTALELLDQGNRALTHGTCPAVGIGGHVLGGGYGFATHTHGLTLDWLVGATVVLADASIVHVSKTENADLFWALRGGGGGFAIVSEFEFNTFEAPEIITTYQVTTTWNRKQHVAGLKALQDWAENTMPRELSMRLEINANALNWEGNYFGNAKDLKKVLQPIMKKAGGKSTISKLVETDWYGQINTYLYGADLNITYNYDVHEYFYANSLTAPRLSDEAISAFVDYKFDNSSVRPGRGWWIQWDFHGGKNSALASHSNDETAYAHRDQLWLWQFYDSIYDYENNTSPYPESGFEFMQGFVATIEDTLPEDRKGKYFNYADTTLDKEEAQKLYWRGNLEKLQAIKAKYDPEDVFGNVVSVEPIA	1.4023	improved activity over wtGOOX	-0.02652	improved activity over wtGOOX
Y72F: GOOX variant with Y72F relative to SEQ ID NO: 1 (protein, listed as Sarocladium strictum, (1)..(206) FAD-binding domain; (207)..(474) substrate-binding domain) NSINACLAAADVEFHEEDSEGWEMDGTAFNLRVDYDPVAIAIPRSTEDIAAAVQCGLDAGVQISAKGGGHSFGSYGFGGEDGHLMLELDRMYRVSVDDDNVATIQGGARLGYTALELLDQGNRALTHGTCPAVGIGGHVLGGGYGFATHTHGLTLDWLVGATVVLADASIVHVSKTENADLFWALRGGGGGFAIVSEFEFNTFEAPEIITTYQVTTTWNRKQHVAGLKALQDWAENTMPRELSMRLEINANALNWEGNYFGNAKDLKKVLQPIMKKAGGKSTISKLVETDWYGQINTYLYGADLNITYNYDVHEYFYANSLTAPRLSDEAISAFVDYKFDNSSVRPGRGWWIQWDFHGGKNSALASHSNDETAYAHRDQLWLWQFYDNIYDYENNTSPYPESGFEFMQGFVATIEDTLPEDRKGKYFNYADTTLDKEEAQKLYWRGNLEKLQAIKAKYDPEDVFGNVVSVEPIA	0.6279		0.05395	improved activity over wtGOOX
E247A: GOOX variant with E247A relative to SEQ ID NO: 1 (protein, listed as Sarocladium strictum, (1)..(206) FAD-binding domain; (207)..(474) substrate-binding domain) NSINACLAAADVEFHEEDSEGWEMDGTAFNLRVDYDPVAIAIPRSTEDIAAAVQCGLDAGVQISAKGGGHSYGSYGFGGEDGHLMLELDRMYRVSVDDDNVATIQGGARLGYTALELLDQGNRALTHGTCPAVGIGGHVLGGGYGFATHTHGLTLDWLVGATVVLADASIVHVSKTENADLFWALRGGGGGFAIVSEFEFNTFEAPEIITTYQVTTTWNRKQHVAGLKALQDWAENTMPRELSMRLAINANALNWEGNYFGNAKDLKKVLQPIMKKAGGKSTISKLVETDWYGQINTYLYGADLNITYNYDVHEYFYANSLTAPRLSDEAISAFVDYKFDNSSVRPGRGWWIQWDFHGGKNSALASHSNDETAYAHRDQLWLWQFYDNIYDYENNTSPYPESGFEFMQGFVATIEDTLPEDRKGKYFNYADTTLDKEEAQKLYWRGNLEKLQAIKAKYDPEDVFGNVVSVEPIA	0.724		0.05669	improved activity over wtGOOX
